Results as given in patent US20210261665A1.

Tests used:
[1] = target: mPD-1 protein (ELISA coat) (mouse) (UniProt Q02242); test: ELISA against mPD-1 ECD-Fc protein (plate coat)
[2] = target: human PD-1 on cells (human) (UniProt Q15116); test: flow cytometry on CHOK1-hPD-1 cells
[3] = target: human PD-1 on cells (human) (UniProt Q15116)
[4] = target: hPD-1 protein (ELISA coat) (human) (UniProt Q15116); test: ELISA against hPD-1 ECD-Fc protein (plate coat)
[5] = target: human PD-1 on cells (human) (UniProt Q15116); test: cell based RBA (flow cytometry): blocking of Biotin-hPD-L1 binding to CHOK1-hPD-1 cells
[6] = target: human PD-1 on cells (human) (UniProt Q15116); test: cell based RBA (flow cytometry): blocking of Biotin-hPD-L2 binding to CHOK1-hPD-1 cells
[7] = target: cynomolgus monkey PD-1 on cells (cynomolgus monkey) (UniProt B0LAJ3); test: flow cytometry on CHOK1-cPD-1 cells
Sequence of cynomolgus monkey PD-1 on cells (cynomolgus monkey) (B0LAJ3 entry or part of it limits assumed): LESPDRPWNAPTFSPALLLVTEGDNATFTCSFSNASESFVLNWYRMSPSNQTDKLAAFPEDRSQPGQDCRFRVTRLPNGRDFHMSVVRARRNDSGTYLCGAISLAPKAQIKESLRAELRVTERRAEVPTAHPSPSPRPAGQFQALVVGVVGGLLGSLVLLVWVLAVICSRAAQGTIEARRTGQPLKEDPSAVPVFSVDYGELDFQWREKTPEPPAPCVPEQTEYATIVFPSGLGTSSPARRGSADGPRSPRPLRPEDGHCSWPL

Sequence of human PD-1 on cells (human) (Q15116 25-288): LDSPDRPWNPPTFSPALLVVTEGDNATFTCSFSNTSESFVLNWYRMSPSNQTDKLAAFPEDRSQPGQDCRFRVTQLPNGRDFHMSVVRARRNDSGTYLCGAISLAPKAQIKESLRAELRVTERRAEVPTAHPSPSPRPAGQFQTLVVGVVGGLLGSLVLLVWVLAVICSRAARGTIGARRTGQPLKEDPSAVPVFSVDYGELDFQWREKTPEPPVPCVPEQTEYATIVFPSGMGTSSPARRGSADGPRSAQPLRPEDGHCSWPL
Sequence of mPD-1 protein (ELISA coat) (mouse) (Q02242 25-167 limits assumed): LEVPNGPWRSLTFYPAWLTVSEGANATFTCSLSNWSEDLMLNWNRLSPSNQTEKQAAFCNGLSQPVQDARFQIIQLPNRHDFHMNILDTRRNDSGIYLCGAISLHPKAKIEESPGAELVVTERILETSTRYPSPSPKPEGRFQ
Sequence of hPD-1 protein (ELISA coat) (human) (Q15116 25-167 limits assumed): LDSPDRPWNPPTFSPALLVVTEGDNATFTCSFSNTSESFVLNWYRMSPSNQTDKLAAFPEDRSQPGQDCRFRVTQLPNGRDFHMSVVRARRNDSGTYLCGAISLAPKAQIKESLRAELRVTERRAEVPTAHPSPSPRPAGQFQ

Question: With control human IgG4 (antibody) as the substance, how does the Max OD450 [1] read?
Answer: 0.92

Question: And the Max MFI [2]?
Answer: 107

Question: And the EC50 printed for the negative control; its RLU curve is flat at about 270000 and falls to about 225000 at the highest concentration, no activation [3]?
Answer: 12.4 µg/mL

Question: And the Max OD450 [4]?
Answer: 0.67

Question: What about the Inhibition rate [5] of the same substance?
Answer: 4.9%

Question: What about the Inhibition rate [6] of the same substance?
Answer: -5.5%

Question: And the Max MFI [7]?
Answer: 86
